Assay results: patent US20220380473A1, “ANTI-GAL3 ANTIBODIES AND USES THEREOF” (TrueBinding, Inc., priority 2019, published 2022)
“Also recorded” adds a separate entry of the source. Values belong to the molecule of their own block, whether it stands above or below them.

Experiments:
human Gal3-His = human Gal3-His (Homo sapiens, UniProt P17931); test: Antibody binning by biolayer interferometry (Gator); type: binding; conditions: antibody competition
Method: To determine whether Gal3-binding antibodies with Gal3-TIM3 blocking activity bind to the same or overlapping regions of the Gal3 molecule, antibody binning assays were performed to assess the ability of antibodies to simultaneously bind Gal3. Amine-reactive probes were loaded onto a Gator biosensor (Probe Life, Palo Alto, Calif.), equilibrated in dH20 for 60 seconds, dipped into 100 μl EDC 0.2M/NHS 0.05M activation buffer for 30 seconds, then dipped into a solution of […] human Gal3-His in 10 mM NaOAc buffer, pH 5 until binding was saturated, and quenched in 1 M ethanolamine pH 8.5 for 300 seconds. Following Gal3-His loading, tips were dipped in 20 μg/mL saturating antibody, then successively dipped into 5 μg/mL competing antibody.

Galectin-3 = Galectin-3 (Homo sapiens, UniProt P17931); test: SPR (BiacoreT200) binding affinity; conditions: 25° C., read-out: hGal-3 KD
Chain of Galectin-3 (P17931 whole entry): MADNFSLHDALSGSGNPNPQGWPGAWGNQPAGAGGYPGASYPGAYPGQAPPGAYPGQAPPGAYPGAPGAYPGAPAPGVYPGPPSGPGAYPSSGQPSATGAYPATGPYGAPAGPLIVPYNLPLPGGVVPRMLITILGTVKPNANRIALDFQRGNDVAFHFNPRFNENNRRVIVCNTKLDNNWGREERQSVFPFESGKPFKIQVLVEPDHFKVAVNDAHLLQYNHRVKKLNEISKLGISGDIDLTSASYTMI
Method: GAL3-binding antibodies were evaluated for their binding affinity by SPR. Kinetics experiments were performed on BiacoreT200 at 25° C. in high performance mode. Ligand proteins, purified antibodies were captured onto a CM5 chip coupled with anti-human Fc or anti-mouse Fc antibody, three antibodies at a time onto flow cell #2, 3, and 4, respectively, while flow cell #1 was used as reference. The analyte Galectin-3 in HBS-EP buffer was injected over all four flow cells at concentrations of 100, 50, 25, 12.5, 6.25, 3.125 and 0 nM at a flow rate of 30 μL/min. The complex was allowed to associate and dissociate for 240 and 300 seconds, respectively. The surfaces were regenerated with a 30 second injection of 10 mM Glycine pH 1.7 (flow rate 30 μL/min). The data were fit to a simple 1:1 interaction model using the global data analysis option available within BiacoreT200 Evaluation software V2.0. The affinity of Gal3 monoclonal antibodies was confirmed to be […] 30 nM for all antibodies studied (Table 24.1). Antibodies with affinity less than 2E-7 were selected for further characterization.

hGal3 peptide = test: Gal3 peptide library ELISA (Example 25); type: binding, human; conditions: for Epitope Mapping: hGal3 peptide No. bound; for Gal3 peptide bound: peptide array ELISA
Method: To identify the epitopes to which Gal3 antibodies with and without Gal3-TIM3 blocking activity bound, a library of 20 amino acid peptides representing portions of Gal3, summarized in Table 24.1, was produced and the ability to bind Gal3 antibodies was evaluated by ELISA.
At least 2 μg/ml of hGal3 peptide in 50 μl of PBS or 0.1 μg/ml of full-length human Gal3 protein (GenScript) and human Galectin-3 protein (Acro Biosystems, GA3-H5129) were diluted in PBS (Corning, 21-030-CM) to concentrations of at least 2 μg/ml or 0.1 μg/ml, respectively, and added to the wells of a 96-well ELISA plate (Thermo Fisher, 44-2404-21). After incubating the plate at 4° C. overnight, the plate was washed three times with PBST (PBS with 0.05% Tween 20 [VWR, 0777]). The plate was then blocked for an hour with 2% BSA (EMD Millipore, 126609) in PBST at room temperature with gentle rocking. Thereafter, the 2% BSA in PBST was discarded and human Galectin-3 hybridoma supernatants or antibodies were diluted in 2% BSA in PBST to concentrations of at least 0.1 μg/ml and added to the wells. The plate was incubated for an hour at room temperature with gentle rocking and then washed three times with PBST. Afterwards, Goat Anti-Mouse IgG-HRP (Jackson ImmunoResearch, 115-036-1461) or Goat Anti-Rat IgG HRP (abcam, ab205720) diluted in 2% BSA in PBST (1:4000) were added to the wells. The plate was incubated for 30 minutes to 1 hour at room temperature with gentle rocking and then washed three times with PB ST. TMB substrate (Thermo Scientific, 34029) was then added to each well. The reaction was stopped with 1M HCl (JT Baker, 5620-02) and read using a plate reader (Molecular Devices) at absorbance of 450 nm.

[1] = target: T1, association of GAL3 and TIM3 (Homo sapiens, UniProt P17931); test: GAL3-TIM3 blocking ELISA (Examples 24, 27); type: binding; conditions: 3 ug/mL antibody
T1 construct: full-length human Galectin-3 protein (Acro Biosystems, GA3-H5129); linker-spaced 6-histidine tag; purchased Acro Biosystems GA3-H5129 (Gal3); TM3-H5229 (TIM-3)
T1 sequence (P17931 2-250 limits assumed): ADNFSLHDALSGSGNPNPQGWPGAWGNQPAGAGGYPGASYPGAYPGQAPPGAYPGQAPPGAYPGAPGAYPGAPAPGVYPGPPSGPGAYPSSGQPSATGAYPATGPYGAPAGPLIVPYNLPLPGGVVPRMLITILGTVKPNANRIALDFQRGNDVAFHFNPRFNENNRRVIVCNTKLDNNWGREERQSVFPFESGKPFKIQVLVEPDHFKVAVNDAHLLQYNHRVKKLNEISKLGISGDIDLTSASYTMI
Method: Positively scoring wells were evaluated for the ability to block association of GAL3 and TIM3. To identify GAL3-targeted antibodies with the ability to block the interaction of GAL3 and TIM3, purified GAL3 and TIM3 proteins were incubated in the presence of GAL3-immunization hybridoma supernatants described above, or without antibody, and protein interaction was evaluated by ELISA. Human Galectin-3 protein (Acro Biosystems, GA3-H5129) was diluted in PBS (Corning, 21-030-CM) to a concentration of 3 μg/ml and added to the wells of a 96-well ELISA plate (Thermo Fisher, 44-2404-21). After incubating the plate at 4° C. overnight, the plate was washed three times with PBST (PBS with 0.05% Tween 20 [VWR, 0777]). The plate was then blocked for an hour with 2% BSA (EMD Millipore, 126609) in PBST at room temperature with gentle rocking. Thereafter, the 2% BSA in PBST was discarded and antibody or inhibitor (3-fold dilutions beginning at 20 μg/ml, 60 μg/ml, or 180 μM) in 2% BSA in PBST was added to the wells. Afterwards, 2 μg/ml of human TIM3 (Aero Biosystems, TM3-H5229) in 2% BSA in PBST was added to the antibody or inhibitor in the wells in a 1:1 ratio. The plate was incubated for an hour at room temperature with gentle rocking. Thereafter, the plate was washed three times with PBST, and 0.3 μg/ml of human TIM3 Biotinylated Antibody (R&D Systems, BAF2365) in 2% BSA in PBST was added to the wells. The plate was incubated for an hour with gentle rocking and then washed three times with PBST. Avidin-HRP (1:2000) was then added to the wells. The plate was incubated at room temperature for an hour with gentle rocking and then washed three times with PBST. TMB substrate (Thermo Scientific, 34029) was then added to each well. The reaction was stopped with 1M HCl (JT Baker, 5620-02) and read using a plate reader (Molecular Devices) at absorbance of 450 nm.

Chain of human Gal3-His (P17931 whole entry): as the sequence (P17931 whole entry) above

Bin (human Gal3-His): 4
Kd (Galectin-3): < 1 nM
GAL3-TIM3 Blocking @ 3 ug/mL [1]: 61%
B1: 19B5.2E6: murine anti-Gal3 antibody (antibody, V domains shown)
VH: QIQLVQSGPELKKPGETVKISCKASGYTFTTYAMSWVKQAPGKGLKWMGWINTYSGVPTYADDLKGRFAFSLETSASTAYLQINNLKNEDTATYFCARGPYAMDYWGQGTSVTVSS
VL: DIQMTQTTSSLSASLGDRVTISCSASQGINNYLNWYQQKPDGTVKLLIYYASSLHSGVPSRFSGSGSGTDYSLTISNLEPEDIATYYCQQYSQVPYTFGSGTKLEIK
Epitope Mapping (hGal3 peptide): 1,7
Gal3 peptide bound (hGal3 peptide): peptide 1; also recorded: peptide 7

Bin (human Gal3-His): 4
Kd (Galectin-3): 4.26 nM
GAL3-TIM3 Blocking @ 3 ug/mL [1]: 80%
B2: 23H9.2E4: murine anti-Gal3 antibody (antibody, V domains shown)
VH: B1 VH
VL: B1 VL
Epitope Mapping (hGal3 peptide): 1,7
Gal3 peptide bound (hGal3 peptide): peptide 1; also recorded: peptide 7

Bin (human Gal3-His): 3
Kd (Galectin-3): 2.73 nM
GAL3-TIM3 Blocking @ 3 ug/mL [1]: 90%
B3: 846.1F5: murine anti-Gal3 antibody (antibody, V domains shown)
VH: QIQLVQSGPELKKPGETVKISCKASGYTFTNYGMNWVKQAPGKGLKWMGWINTYTGEPSYADDFKGRFAFSLETSASTAYLQINNLKNEDMATYFCARWGGYDGDYYAMDYWGQGTSVTVSS
VL: NIMMTQSPSSLAVSAGEKVTMSCKSSQSVLYSSNQKNYLAWYQQKPGQSPKLLIYWASTRESGVPDRFTGSGSGTDFTLTISSVQPEDLAVYYCHQYLSSLTFGAGTKLELK
Epitope Mapping (hGal3 peptide): 6
Gal3 peptide bound (hGal3 peptide): peptide 6

Bin (human Gal3-His): 3
Kd (Galectin-3): 5.22 nM
GAL3-TIM3 Blocking @ 3 ug/mL [1]: 48%
B4: 4A11.2B5: murine anti-Gal3 antibody, origin of IMT006-1 and IMT006-5 (antibody, V domains shown)
VH: QVQLQQSGPELVKPGASVKISCKASGYSFTNYYIHWVKQRPGQGLEWIGWIYPGSGNTNYNEKFKGKATLTADTSSSTTNMQLSSLTSEDSAVYYCSTAPGGFDVWGSGTTVTVSS
VL: DIVMTQAAFSNPVTLGTSASISCRSSKSLLHSDGITYLYWYLQRPGQSPQLLIYRMSNLASGVPDRFSGSGSGTDFTLRISRVEAEDVGVYYCAQMLEFPLTFGAGTKLELK
Epitope Mapping (hGal3 peptide): 6
Gal3 peptide bound (hGal3 peptide): peptide 6

Bin (human Gal3-His): 8
Kd (Galectin-3): 2.06 nM
GAL3-TIM3 Blocking @ 3 ug/mL [1]: 19%
B5: 15F10.2D6: murine anti-Gal3 antibody (antibody, V domains shown)
VH: EVQLVESGGGLVKPGGSLKLSCAASGFAFSSYAMSWVRQTPEKRLEWVATISDGGVYTYYTDHVKGRFTISRDNAEDNLYLQMSHLKSEDTAMYYCVRDGGYWGQGTTLTVSS
VL: DVLMTQTPLSLPVSLGDQASISCRSSQSIVHNNGNTYLEWYLQKPGQSPKLLIYKVSNRFSGVPDRFSGSGSGTDFTLKISRVEAEDLGVYYCFQGSHVPLTFGGGTKLELK
Epitope Mapping (hGal3 peptide): 2,7
Gal3 peptide bound (hGal3 peptide): peptide 7

Bin (human Gal3-His): 10
Kd (Galectin-3): 1.9 nM
GAL3-TIM3 Blocking @ 3 ug/mL [1]: 12%
B6: 12G5.D7: murine anti-Gal3 antibody (antibody, V domains shown)
VH: QVQLKQSGAELVRPGASVKLSCKASGYTFTDYYINWVKQRPGQGLEWIARIYPGTGNTDYNEKFKGRATLTAEKSSSTAYMQLSSLTSEDSAVYFCARFAYYYGSGGYFDYWGHGTTLTVSS
VL: DILMTQSPSSMSVSLGDTVSITCHASQGINSNMGWLQQKPGKSFKGLIYHATNLEDGVPSRFSGSGSGADYSLTISSLESEDFADYYCVQYAQFPPTFGSGTKLEIK
modifications: VH of 12G5.D7; VL of 12G5.D7
notes: murine anti-Gal3 antibody
Epitope Mapping (hGal3 peptide): Non-linear

Bin (human Gal3-His): 5
Kd (Galectin-3): 27.8 nM
GAL3-TIM3 Blocking @ 3 ug/mL [1]: 40%
B7: 20D11.2C6: murine anti-Gal3 antibody (antibody, V domains shown)
VH: EVQLQQSGPELVKPGASVKISCKASGYTFTDFYINWVKQSHGKSLEWIGDINPKNGGINYNPKFKIKATLTVDKSSSTSYMDLRGLTSEDSAVYYCTSGYGFPYWGQGTLVTVSA
VL: DIQMNQSPSSLSASLGDTITITCRASQNIYIWLSWYQQKPGNIPKLLIYKASNLHTGVPSRFSGSGSGTDFTLTISTLQPEDIATYFCLQGQSYPLTFGAGTKLEMK
Gal3 peptide bound (hGal3 peptide): peptide 1; also recorded: peptide 7

Bin (human Gal3-His): 11
Kd (Galectin-3): 4.13 nM
GAL3-TIM3 Blocking @ 3 ug/mL [1]: 0%
B8: 24D12.2H9: murine anti-Gal3 antibody (antibody, V domains shown)
VH: QVQLKQSGPGLVQPSQSLSITCTVSGFSLTSYGVHWVRQAPGKGLEWLGVIWSGGSTDYNAAFMSRLSISKDNSKSQVFFKMNSLQADDTAIYYCAKSPDGYDVAWFGYWGQGTLVTVSA
VL: DIVMTQSHKFMSTSVGDRVSITCKASQDVRTAVAWYQQKPGQSPKLLIYWASTRHTGVPDRFTGSGSGTDFTLTLSNVQSEDLADYFCQQYSSYPWTFGGGTKLEIK
modifications: VH of 24D12.2H9; VL of 24D12.2H9
notes: murine anti-Gal3 antibody
Epitope Mapping (hGal3 peptide): Non-linear
